In paper PMC5587793:

T1: His-GapR (Caulobacter crescentus (NA1000?)) (UniProt B8H4R9)
T1 sequence: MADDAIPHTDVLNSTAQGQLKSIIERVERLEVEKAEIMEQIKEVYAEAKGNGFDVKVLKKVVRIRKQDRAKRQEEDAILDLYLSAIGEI

T2: His-GapR (Caulobacter crescentus, UniProt B8H4R9 1-89)
T2 sequence: T1 sequence

B1: CoriUP oligonucleotide (dsDNA)
DNA 1: GCAGGGCAAGTGGTTAAGCATATGTTAACGGATGATCCACAGG
DNA 2: CCTGTGGATCATCCGTTAACATATGCTTAACCACTTGCCCTGC
modifications: 3 bp up-replication mutation

Tests used:
[1] = biological target: T1, His-GapR (Caulobacter crescentus (NA1000?)); assay: EMSA
His-GapR = biological target: T2, His-GapR; assay: EMSA

Molecule | Kd [1] [nM] | binding result (His-GapR)
Cori DNA (EMSA of Figure S6) | 10 | –
B1 | – | binds
